In patent US20250135039A1, “INHIBITOR-RESISTANT MGMT MODIFICATIONS AND MODIFICATION OF MGMT-ENCODING NUCLEIC ACIDS” (Ensoma, Inc., priority 2022, published 2025):

Tested on: U251 human glioblastoma cell line
Test: in vitro FM-HCR assay of MGMT activity (mPlum O^6MeG reporter plasmid)
Assay type: cell-based
Conditions: for Reporter expression (%) mean, O^6BG: 100 μM O^6BG; for Reporter expression (%) mean, O^6BG / Reporter expression (%) mean, DMSO: U251 cells, flow cytometry 24 h after transfection, damaged/undamaged reporter, inversely related to MGMT activity; for Reporter expression (%) mean, DMSO: 0.1% DMSO; for MGMT activity (a.u.) DMSO / MGMT activity (% of WT) DMSO: DMSO condition; for MGMT activity (a.u.) DMSO / MGMT activity (a.u.) O^6BG: determined from percent reporter expression; for MGMT activity (% of WT) DMSO / MGMT activity (% of WT) O^6BG: relative to wild-type MGMT in same condition; for Relative MGMT activity (%): MGMT activity (a.u.) in O^6BG divided by DMSO x 100, higher values indicate resistance; for MGMT activity (a.u.) O^6BG / MGMT activity (% of WT) O^6BG: O^6BG condition; for Ratio percent reporter expression (O^6BG/DMSO): lower values indicate resistance to O^6BG; for O^6BG resistance relative to WT (%): percentage difference in relative MGMT activity between variant and wild-type MGMT
Excerpt: The present Example includes, in part, an in vitro fluorescence multiplex host cell reactivation (FM-HCR) assay in which a reporter plasmid with O^6MeG-containing oligonucleotides is used. The oligonucleotides induce transcription errors that lead to expression of fluorescent mPlum protein. Functional MGMT will repair the O^6MeG sites and reduce mPlum expression. This represents a rapid and validated assay system to assess intracellular activity of MGMT. Further description of certain such assays is found in Nagel (2014 PNAS USA 111 (18): E1823-32, which is incorporated herein by reference.
The present Example uses an in vitro FM-HCR assay in which a reporter plasmid with 0° MeG-containing oligonucleotides is used to assay MGMT activity in cells. The O^6MeG-containing oligonucleotides induce transcription errors that lead to expression of fluorescent mPlum protein. Functional MGMT will repair the O'MeG sites and reduce mPlum expression. This represents a rapid and validated assay system to assess intracellular activity of MGMT. Further description of certain such assays is found in Nagel et al., 2014 PNAS USA 111 (18): E1823-32 and Piett et al., 2021 Nat. Protoc. 16 (9): 4265-4298, each of which is incorporated herein by reference.
The in vitro FM-HCR assay was performed using the U251 human glioblastoma cell line. The cells were cultured in DMEM with 10% FBS and passaged every three days.
To express MGMT variants in the cells, plasmids encoding each MGMT variant were designed and generated by either de novo synthesis or cloning into the pTwist EF1 Alpha Puro vector at the HindII-BamHI multiple cloning site. The pTwist EF1 Alpha Puro plasmid vector drives expression of the MGMT transcript from a human EF1-alpha promoter including intron 1 and an SV40 polyadenylation signal. Plasmids encoding the MGMT variants were purified using standard molecular biology techniques from E. coli with low endotoxins. Plasmids encoding wild-type MGMT or O^6BG-resistant MGMT^P140K were also designed and generated for use as controls.
To perform the in vitro FM-HCR assay, U251 cells were seeded in 12-well plates at a density of 50,000 cells per well in 1 mL culture media. The following day, the media was changed to 1 mL of culture media containing O^6BG (100 μM O^6BG and 0.1% DMSO final) or 0.1% DMSO; and the cells were transfected with 1,000 ng of a plasmid cocktail using Lipofectamine 3000 (ThermoFisher Scientific) at 1.8 μL Lipofectamine 3000 Reagent and 2 μL P3000 reagent in Opti-MEM medium (ThermoFisher Scientific). […] For the “undamaged” condition, the plasmid cocktail replaced the mPlum O^6MeG reporter plasmid with 100 ng of a plasmid expressing mPlum. The plasmid encoding BFP was used as an internal transfection control. For transfections where no MGMT encoding plasmid is used (no pMGMT), 250 ng of additional carrier plasmid was used to maintain a total DNA amount of 1,000 ng in each transfection. Four hours after transfection, the transfection medium was changed.
All transfected cells were analyzed by flow cytometry at 24-hours after transfection. Data was analyzed as previously described in Nagel et al., 2014 PNAS USA 111 (18): E1823-32 and Piett et al., 2021 Nat. Protoc. 16 (9): 4265-4298. For each condition, normalized reporter expression was determined by taking the product of the mPlum-positive cell count and the mean mPlum fluorescence intensity in mPlum-positive cells and dividing it by the product of the BFP-positive cell count and the mean BFP fluorescence intensity in BFP-positive cells. Next, for each MGMT variant, the percent reporter expression was determined by taking the normalized reporter expression in the “damaged” condition and dividing it by the normalized reporter expression in the “undamaged” condition, and then multiplying by 100 to obtain a percent value. […]

| Molecule | Reporter expression (%) mean, O^6BG | Reporter expression (%) mean, DMSO | MGMT activity (a.u.) DMSO | MGMT activity (% of WT) DMSO | Relative MGMT activity (%) | MGMT activity (a.u.) O^6BG | MGMT activity (% of WT) O^6BG | Ratio percent reporter expression (O^6BG/DMSO) | O^6BG resistance relative to WT (%) |
| --- | --- | --- | --- | --- | --- | --- | --- | --- | --- |
| N137F: MGMT polypeptide with mutation N137F (protein) MDKDCEMKRTTLDSPLGKLELSGCEQGLHEIKLLGKGTSAADAVEVPAPAAVLGGPEPLMQCTAWLNAYFHQPEAIEEFPVPALHHPVFQQESFTRQVLWKLLKVVKFGEVISYQQLAALAGNPKAARAVGGAMRGFPVPILIPCHRVVCSSGAVGNYSGGLAVKEWLLAHEGHRLGKPGLGGSSGLAGAWLKGAGATSGSPPAGRN | 104.3% | 109.7% | 0.91 a.u. | 16.9 % of WT | 105.1% | 0.96 a.u. | 67.1 % of WT | 0.95 | 297.7% |
| P140F: MGMT polypeptide with mutation P140F (protein) MDKDCEMKRTTLDSPLGKLELSGCEQGLHEIKLLGKGTSAADAVEVPAPAAVLGGPEPLMQCTAWLNAYFHQPEAIEEFPVPALHHPVFQQESFTRQVLWKLLKVVKFGEVISYQQLAALAGNPKAARAVGGAMRGNPVFILIPCHRVVCSSGAVGNYSGGLAVKEWLLAHEGHRLGKPGLGGSSGLAGAWLKGAGATSGSPPAGRN | 76.8% | 25.3% | 3.96 a.u. | 73.3 % of WT | 32.9% | 1.30 a.u. | 91.2 % of WT | 3.04 | 24.5% |
| P140I: MGMT polypeptide with mutation P140I (protein) MDKDCEMKRTTLDSPLGKLELSGCEQGLHEIKLLGKGTSAADAVEVPAPAAVLGGPEPLMQCTAWLNAYFHQPEAIEEFPVPALHHPVFQQESFTRQVLWKLLKVVKFGEVISYQQLAALAGNPKAARAVGGAMRGNPVIILIPCHRVVCSSGAVGNYSGGLAVKEWLLAHEGHRLGKPGLGGSSGLAGAWLKGAGATSGSPPAGRN | 31.0% | 14.7% | 6.82 a.u. | 126.1 % of WT | 47.3% | 3.23 a.u. | 225.8 % of WT | 2.11 | 79.0% |
| P140H: MGMT polypeptide with mutation P140H (protein) MDKDCEMKRTTLDSPLGKLELSGCEQGLHEIKLLGKGTSAADAVEVPAPAAVLGGPEPLMQCTAWLNAYFHQPEAIEEFPVPALHHPVFQQESFTRQVLWKLLKVVKFGEVISYQQLAALAGNPKAARAVGGAMRGNPVHILIPCHRVVCSSGAVGNYSGGLAVKEWLLAHEGHRLGKPGLGGSSGLAGAWLKGAGATSGSPPAGRN | 29.3% | 15.7% | 6.38 a.u. | 118.1 % of WT | 53.4% | 3.41 a.u. | 238.6 % of WT | 1.87 | 102.1% |
| P140R: MGMT polypeptide with mutation P140R (protein) MDKDCEMKRTTLDSPLGKLELSGCEQGLHEIKLLGKGTSAADAVEVPAPAAVLGGPEPLMQCTAWLNAYFHQPEAIEEFPVPALHHPVFQQESFTRQVLWKLLKVVKFGEVISYQQLAALAGNPKAARAVGGAMRGNPVRILIPCHRVVCSSGAVGNYSGGLAVKEWLLAHEGHRLGKPGLGGSSGLAGAWLKGAGATSGSPPAGRN | 38.3% | 25.3% | 3.95 a.u. | 73.0 % of WT | 66.1% | 2.61 a.u. | 182.6 % of WT | 1.51 | 150.1% |
| N137P: MGMT polypeptide with mutation N137P (protein) MDKDCEMKRTTLDSPLGKLELSGCEQGLHEIKLLGKGTSAADAVEVPAPAAVLGGPEPLMQCTAWLNAYFHQPEAIEEFPVPALHHPVFQQESFTRQVLWKLLKVVKFGEVISYQQLAALAGNPKAARAVGGAMRGPPVPILIPCHRVVCSSGAVGNYSGGLAVKEWLLAHEGHRLGKPGLGGSSGLAGAWLKGAGATSGSPPAGRN | 93.0% | 94.0% | 1.06 a.u. | 19.7 % of WT | 101.1% | 1.08 a.u. | 75.3 % of WT | 0.99 | 282.4% |
| P138K: MGMT polypeptide with mutation P138K (protein) MDKDCEMKRTTLDSPLGKLELSGCEQGLHEIKLLGKGTSAADAVEVPAPAAVLGGPEPLMQCTAWLNAYFHQPEAIEEFPVPALHHPVFQQESFTRQVLWKLLKVVKFGEVISYQQLAALAGNPKAARAVGGAMRGNKVPILIPCHRVVCSSGAVGNYSGGLAVKEWLLAHEGHRLGKPGLGGSSGLAGAWLKGAGATSGSPPAGRN | 64.0% | 16.3% | 6.12 a.u. | 113.3 % of WT | 25.5% | 1.56 a.u. | 109.4 % of WT | 3.92 | −3.4% |
| P140Q: MGMT polypeptide with mutation P140Q (protein) MDKDCEMKRTTLDSPLGKLELSGCEQGLHEIKLLGKGTSAADAVEVPAPAAVLGGPEPLMQCTAWLNAYFHQPEAIEEFPVPALHHPVFQQESFTRQVLWKLLKVVKFGEVISYQQLAALAGNPKAARAVGGAMRGNPVQILIPCHRVVCSSGAVGNYSGGLAVKEWLLAHEGHRLGKPGLGGSSGLAGAWLKGAGATSGSPPAGRN | 49.0% | 15.3% | 6.52 a.u. | 120.7 % of WT | 31.3% | 2.04 a.u. | 142.9 % of WT | 3.20 | 18.4% |
